# The supplement of paper PMC10126150
# ± gives the standard deviation of the averaged measurements.
# System: ATP
# Test: switch fluorescence ratio, 500 uM ATP over buffer (Cy3 cluster intensity, sum of 5 cycles each) (fold (ratio)); higher = stronger signal-on switching upon ATP binding; sequences stand for … in TCGTCGGCAGCGTCAGATGTGTATAAGAGACAGTTTTTTTTTTTTTTTTTTTTTTTTT…TC
# Details: aptamer strand: ATP DNA aptamer (quencher-CACCTGGGGGAGTATTGCGGAGGAAGG + anchor), 100 nM annealed; ATP concentration: 500 uM
# Procedure, shortened: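 Clusters carrying Cy3-labelled switching strands on a modified Illumina MiSeq flow-cell were annealed to 100 nM quencher-labelled ATP aptamer and imaged in selection buffer. They were imaged again after 15 min with 500 uM ATP at 22 °C, over five buffer/ATP cycles with NaOH stripping and re-annealing in between. For each cluster, the fluorescence ratio is the summed Cy3 intensity of the target cycles divided by that of the buffer cycles, averaged per switch-domain sequence. Clusters outside 100-1000 RFU were left out.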
# 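Further: ATP exposure 15 min at 22 °C before imaging.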
sequence,measurement,value
CAATATTACT,switch fluorescence ratio,1.01 ± 0.042
TCCACCCTT,switch fluorescence ratio,1.03 ± 0.013
AACCGTTCGA,switch fluorescence ratio,1.07 ± 0.046
TTGAGTCGTC,switch fluorescence ratio,0.962 ± 0.011
TGTTGTTTTG,switch fluorescence ratio,1 ± 0.042
TGATGAGATT,switch fluorescence ratio,0.999 ± 0.02
CACCTGATGG,switch fluorescence ratio,0.997 ± 0.025
TTTCGTTTGG,switch fluorescence ratio,0.981 ± 0.042
GGATCTAGAA,switch fluorescence ratio,0.9644 ± 0.008
GCTCACCTAT,switch fluorescence ratio,1.05 ± 0.048
TTTTTACTAA,switch fluorescence ratio,1.01 ± 0.011
TTCGCGCGGT,switch fluorescence ratio,1.04 ± 0.077
TAAGCAGCGA,switch fluorescence ratio,1.045 ± 0.0036
CCTTGTTTTT,switch fluorescence ratio,1.01 ± 0.01
GGGTTCTTTA,switch fluorescence ratio,0.997 ± 0.048
CTTCACTACG,switch fluorescence ratio,1.12 ± 0.043
TGTTTGGTCA,switch fluorescence ratio,0.976 ± 0.065
ATTGGTGGTT,switch fluorescence ratio,1 ± 0.074
ATTTAGTTCG,switch fluorescence ratio,0.9606 ± 0.0073
AGCTAGAGTC,switch fluorescence ratio,1.03 ± 0.028
CAGGGGTTTA,switch fluorescence ratio,1.03 ± 0.034
TGTTCGGCGG,switch fluorescence ratio,1.02 ± 0.036
AAGGGAGTCA,switch fluorescence ratio,0.992 ± 0.031
TGAAATATTT,switch fluorescence ratio,1.21 ± 0.21
TTAAAAGGG,switch fluorescence ratio,0.9979 ± 0.007
TGCTTTTGGT,switch fluorescence ratio,0.988 ± 0.022
GAGGGGCCTG,switch fluorescence ratio,1.01 ± 0.083
TTTTGGGGTA,switch fluorescence ratio,0.993 ± 0.036
AATAATTGAC,switch fluorescence ratio,1.099 ± 0.0086
AAAAACGCTG,switch fluorescence ratio,1.039 ± 0.0093
GCAAGAACTA,switch fluorescence ratio,1.042 ± 0.0016
TTATTTTTAG,switch fluorescence ratio,1.01 ± 0.035
GTGGGGTGAA,switch fluorescence ratio,1.03 ± 0.055
TTGGGCTCTG,switch fluorescence ratio,0.988 ± 0.018
TGCCATTGGG,switch fluorescence ratio,1.08 ± 0.12
TGTGGGATCG,switch fluorescence ratio,0.97 ± 0.02
AGTTAAGGCC,switch fluorescence ratio,1.09 ± 0.092
TGAATGACGG,switch fluorescence ratio,0.993 ± 0.026
CTCGGAGAGG,switch fluorescence ratio,0.987 ± 0.033
TAATTTTGGC,switch fluorescence ratio,0.99 ± 0.018
AGTTGTCTCG,switch fluorescence ratio,1.01 ± 0.058
ATAAGGGGTT,switch fluorescence ratio,0.993 ± 0.039
AAAAGTACGA,switch fluorescence ratio,1.07 ± 0.011
CAAGTAAAAG,switch fluorescence ratio,1.01 ± 0.011
GATTATGGCG,switch fluorescence ratio,1.047 ± 0.0054
TTCATATATG,switch fluorescence ratio,0.989 ± 0.018
TTTTCCGGGT,switch fluorescence ratio,1.02 ± 0.032
CTTAGTCTTT,switch fluorescence ratio,1.018 ± 0.0027
GGGCCGGGGT,switch fluorescence ratio,0.993 ± 0.04
TCGTACTGAC,switch fluorescence ratio,1.03 ± 0.044
AAGAAATCGG,switch fluorescence ratio,1.01 ± 0.018
AGTTGAGGGG,switch fluorescence ratio,0.985 ± 0.034
CATTCAGTTC,switch fluorescence ratio,1 ± 0.058
AGGGTTACGC,switch fluorescence ratio,1.04 ± 0.11
TTTATTTATG,switch fluorescence ratio,1.007 ± 0.0065
CAAATGGGCT,switch fluorescence ratio,0.975 ± 0.044
AAATATATTA,switch fluorescence ratio,1.02 ± 0.016
CCGCTTTGTT,switch fluorescence ratio,1.24 ± 0.072
CGGGGGGGCA,switch fluorescence ratio,1 ± 0.038
CGGGTGGTTG,switch fluorescence ratio,1.04 ± 0.04
ACCAACCGTG,switch fluorescence ratio,1.1028 ± 0.00051
GATTTTGGTT,switch fluorescence ratio,0.998 ± 0.014
TGATCAGGAG,switch fluorescence ratio,0.9853 ± 0.0053
ATTGGGTTGT,switch fluorescence ratio,0.973 ± 0.015
ATCGTGGGAT,switch fluorescence ratio,1.01 ± 0.0081
GGGAGCGCTT,switch fluorescence ratio,1.03 ± 0.012
AGGAAGCGGG,switch fluorescence ratio,1.0224 ± 0.00031
TTTTTTATAC,switch fluorescence ratio,1.02 ± 0.051
TTTAATTTGG,switch fluorescence ratio,0.9816 ± 0.0073
CGATTGATGT,switch fluorescence ratio,1.02 ± 0.016
AAATTTTGAG,switch fluorescence ratio,1.02 ± 0.032
GGAATACGAT,switch fluorescence ratio,1.09 ± 0.16
CCTGGCTGAT,switch fluorescence ratio,1.11 ± 0.058
CCTGGGGGAG,switch fluorescence ratio,1.05 ± 0.11
TTAGGGCGAC,switch fluorescence ratio,1 ± 0.044
GTCGCGGTTG,switch fluorescence ratio,1.03 ± 0.0015
TTAATTGAGG,switch fluorescence ratio,0.993 ± 0.044
TTATAAGGG,switch fluorescence ratio,0.9843 ± 0.0022
GCAGGGGGGG,switch fluorescence ratio,1.05 ± 0.054
TGCTTAGGTT,switch fluorescence ratio,0.988 ± 0.011
TATACTATGT,switch fluorescence ratio,1.05 ± 0.024
GGAAGCTTAA,switch fluorescence ratio,1.048 ± 0.0032
TTTTCTCTTC,switch fluorescence ratio,0.9808 ± 0.0054
GACGTGACAA,switch fluorescence ratio,1.168 ± 0.0021
CGAATGGGTT,switch fluorescence ratio,0.965 ± 0.011
TGGTTATGAA,switch fluorescence ratio,0.998 ± 0.03
GGGTATGGGA,switch fluorescence ratio,0.99 ± 0.017
AAATCGTAGT,switch fluorescence ratio,0.9885 ± 0.0069
AATCTGTGTG,switch fluorescence ratio,0.963 ± 0.042
CTAAGCGGCG,switch fluorescence ratio,0.999 ± 0.026
TTGCAATTTT,switch fluorescence ratio,1.36 ± 0.46
TGATTACAGT,switch fluorescence ratio,1 ± 0.018
ATCCGCTTTA,switch fluorescence ratio,3.28 ± 0.25
CGCGGCTTGG,switch fluorescence ratio,1.01 ± 0.018
TATGTCGGTT,switch fluorescence ratio,0.985 ± 0.033
TACTGGGTCG,switch fluorescence ratio,1.01 ± 0.043
GATTGCCGAT,switch fluorescence ratio,1 ± 0.034
TGGTGTTTGC,switch fluorescence ratio,1 ± 0.038
TTGGCGAGTT,switch fluorescence ratio,1.007 ± 0.002
ACGGACCATT,switch fluorescence ratio,1.27 ± 0.014
TTTTTCGTCT,switch fluorescence ratio,1.02 ± 0.028
TTTGGTTTTT,switch fluorescence ratio,0.999 ± 0.031
GAGATTTCAT,switch fluorescence ratio,0.982 ± 0.036
TCCAGGATAT,switch fluorescence ratio,1.03 ± 0.046
AGGGGCGGGT,switch fluorescence ratio,1.23 ± 0.46
GTTTGATATA,switch fluorescence ratio,1.01 ± 0.011
GGGAAATTGC,switch fluorescence ratio,1.04 ± 0.074
TCGGGTTGTG,switch fluorescence ratio,0.959 ± 0.031
TTGATTTTTG,switch fluorescence ratio,1.01 ± 0.03
TTAAGGACGG,switch fluorescence ratio,0.994 ± 0.065
GATCATGCTA,switch fluorescence ratio,1.02 ± 0.02
ACAACCAGGA,switch fluorescence ratio,1.737 ± 0.00071
GGCGGTAAGA,switch fluorescence ratio,1 ± 0.051
TTCGCCAATG,switch fluorescence ratio,1.07 ± 0.03
TATCATGTGA,switch fluorescence ratio,1.01 ± 0.011
CGGTTGTACC,switch fluorescence ratio,1.007 ± 0.0079
CTACTACTGA,switch fluorescence ratio,1.08 ± 0.015
TTTTTTATCC,switch fluorescence ratio,1.03 ± 0.089
CTTAGCCACT,switch fluorescence ratio,1.036 ± 0.0065
GCTGGTTTAG,switch fluorescence ratio,1.006 ± 0.0039
GGCCTCTTTT,switch fluorescence ratio,0.966 ± 0.039
CGGTCTATTG,switch fluorescence ratio,1.002 ± 0.0098
GCATGGGGCC,switch fluorescence ratio,1 ± 0.011
GACGCATATG,switch fluorescence ratio,2.03 ± 0.098
ATGGTTCAAC,switch fluorescence ratio,1.003 ± 0.01
ACGTTTTGTG,switch fluorescence ratio,0.96 ± 0.028
TGGGGGGAGT,switch fluorescence ratio,1.01 ± 0.024
ATTAAAGGAG,switch fluorescence ratio,1.01 ± 0.017
TCCAGGGGGA,switch fluorescence ratio,1.1 ± 0.051
GGTTAAGGCC,switch fluorescence ratio,1.033 ± 0.007
AGTTCGGGGA,switch fluorescence ratio,0.992 ± 0.014
GAAATTGGCA,switch fluorescence ratio,1.025 ± 0.004
ATGCATTTGT,switch fluorescence ratio,1.01 ± 0.031
AGTTTTCGTG,switch fluorescence ratio,0.99 ± 0.03
AGAGGGGAGT,switch fluorescence ratio,1.021 ± 0.0016
GTGATAGTTA,switch fluorescence ratio,0.967 ± 0.043
ATTTAGAATG,switch fluorescence ratio,1.02 ± 0.011
GACTGTTCGG,switch fluorescence ratio,0.985 ± 0.025
CCTGCCCTGT,switch fluorescence ratio,1.108 ± 0.0022
TTAAGAAAAA,switch fluorescence ratio,1.01 ± 0.016
CAATAAATAG,switch fluorescence ratio,1.005 ± 0.006
GGATGTGAAA,switch fluorescence ratio,0.9851 ± 0.0046
AGGGCACGGG,switch fluorescence ratio,0.982 ± 0.023
GAAGTGTGTG,switch fluorescence ratio,1 ± 0.021
GCTGCATGTA,switch fluorescence ratio,1.02 ± 0.028
GTCCGGGGTT,switch fluorescence ratio,0.994 ± 0.021
GATTAAAGGA,switch fluorescence ratio,1.01 ± 0.011
TTATTTGGGG,switch fluorescence ratio,1.01 ± 0.056
TACGTATACT,switch fluorescence ratio,1.39 ± 0.015
GTGATAAGAG,switch fluorescence ratio,0.999 ± 0.013
AAGGGGTATC,switch fluorescence ratio,1.02 ± 0.05
TTTTTAGGTT,switch fluorescence ratio,1.04 ± 0.064
GGTGGGATTT,switch fluorescence ratio,0.9506 ± 0.0055
